Experimental data taken from paper PMC10128019.

Target: HA76Cda1 (Cda1 with the HA epitope inserted at position 76) (Ustilago maydis)
Experiment: FRET or BRET

Substance: DyLight 550-labeled AFP1-His (AFP1^550) (natural protein)
- FRET efficiency: 23%
